Data taken from patent US20260069689A1 (Regeneron, published 2026).

B1: mAb15161 (antibody, V domains shown)
VH: EVQLVESGGGLVQPGGSLRLSCAASGFTFSSYEMNWVRQAPGKGLEWVSYISSSGSILYYADSVKGRFTASRDNAKNSLYLQMNSLRAEDTGVYYCARREYQLLRPFEFWGQGTLVTVSS
VL: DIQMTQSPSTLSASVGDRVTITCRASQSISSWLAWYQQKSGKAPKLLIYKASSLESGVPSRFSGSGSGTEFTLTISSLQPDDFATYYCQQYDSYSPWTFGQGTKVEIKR
B2: mAb15156 (antibody, V domains shown)
VH: QLQLQESGPGLVKSSETLSLTCTVSASITGSTYYWGWIRQPPGKGLEWIGSIYYSGTTYYKASLKSRVTISVDTSKNQFSLKLTSVTVADTAVYYCVSHLLGNYHKYGMDVWGQGTTVTVSS
VL: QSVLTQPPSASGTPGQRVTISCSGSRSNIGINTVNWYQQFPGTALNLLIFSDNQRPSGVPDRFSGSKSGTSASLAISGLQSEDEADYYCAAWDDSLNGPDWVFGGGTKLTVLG
B3: mAb14256 (antibody, V domains shown)
VH: QVQLQESGPGLVKPSETLSLTCTVSGGSISSHYWSWIRQPPGKGLEWIGYIYYSGSSNYNPSLKSRVTISVDTSKNQFSLKLNSVTAADTAVYYCARHYDILTGFDWFDPWGQGTLVTVSS
VL: QSVLTQPPSVSGAPGQRVTISCTGSSSNIGTHYDVHWYQQLPGTAPKLLIYGNSNRPSGVPDRFSGSKSGTSASLAITGLQAEDEADYYCQSFDNSLTAPYVFGTGTKVTVLG
B4: mAb14285 (antibody, V domains shown)
VH: QVQLVQSGAEVKKPGASVKVSCKASGYTFTGYFIHWVRQAPGQGLEWMGWISPISGGTNYAQKFQGRVTVTRDTSITTAYMELSRLTSDDTAVYHCAREGGTWKGDFDYWGQGTLVTVSS
VL: QSALTQPASVSGSPGQSITISCTGTSSDVESYNLVSWYQQHPGKAPKLMIYEGSKRPSGVSNRFSGSKSGNTASLTISGLQAEDEADYYCSSYAGSSTWVFGGGTKLTVLG
B5: mAb15165 (antibody, V domains shown)
VH: EVQLVESGGGLVQPGGSLRLSCAASGFTVSSNYMSWVRQAPGKGLEWVSAIYSGDSTYYADSVKGRFTISKDNSKNTLYLQMNSLRGEDTAVYYCARLGGALQAYDGAFDYWGQGTLATVSS
VL: QSALTQPASVSGSPGQSITISCTGTSSDFGSYNLVSWYQQHPGKAPKLMIYEGNKRPSGVSIRFSGSKSGNTASLTISGLQAEDEADYYCSSYAGSSTWVFGGGTKLTVLG
B6: mAb15164 (antibody, V domains shown)
VH: EVQLVESGGGLVQPGGSLRLSCAASGFAVSSNYMTWVRQAPGKGLEWVATIYSGDSTYYADSVKGRFTISRHNSKNTLSLQMNSLRADDTAIYYCARLSGVLSGTYNGAFDIWGQGTMVTVSS
VL: QSALTQPASVSGSPGQSITISCTGTSSDFGNYNIVSWYQQHPGQAPKVMIYEGNKRPSGVSNRFSGSKSGHTASLTISGLQAEDEADYYCSSYAGSSTWVFGGGTKLTVLG
B7: mAb14234 (antibody, V domains shown)
VH: QVQLVESGGGVVQPGRSLRLSCAASGFTFSSYGIHWVRQAPGKGLEWVAIIWYDGSEKYYADSVKGRFTISRDNSKNTLFLQMNSLEAEDTAVYYCARGPDLLTGYYNYFYYGMDVWGQGTTVTVSS
VL: QSVLTQPPSVSGAPGQRVTISCTGSSSNIGIGYDVHWYQQLPGTVPKLLIYGNTNRPSGVPDRFSGSKSGTSASLAITGLQAEDEADYYCQSYDSSLSSYVFGTGTKVTVLG
B8: mAb15158 (antibody, V domains shown)
VH: EVQLVESGGGLVQPGGSLRLSCAASGFSFSSNWMSWVRQAPGKGLEWVGNINQDGSEKYYVDSVEGRFTISRDNAKKSLYLQMNSLRAEDTAVYYCARDLGVLWFGDFVDWGQGALVTVSS
VL: DIQMTQSPSSLSASVGDRVTITCRASQAISNSLAWYQQKPGKAPKLLLYAASTLESGVPSRFSGSGSGTDYTLTISSLQPEDFATYYCLQYYGSPRTFGQGTKVEIKR
B9: mAb15160 (antibody, V domains shown)
VH: EVQLVESGGGLVQPGGSLRLSCSASGFTFSRYAMYWVRQAPGKGLEYVSAISSDGGSTYDADSVKGRFTISRANSKNTLYLQMSSLRAEDTAVYYCVKGLRELLYYYYGMDVWGQGTTVTVSS
VL: DIQMTQSPSSLSASVGDRVTITCRAGQSISSFLNWYQQKPGKAPKLLIYAASSLQSGVPSRFSGSGSGTDFTLTISSLQPEDFATYYCQQSYITPFTFGPGTKVDIKR
B10: mAb15159 (antibody, V domains shown)
VH: EVQLVESGGGLVQPGGSLRLSCAASGITVSSNYMTWVRQAPGKGLEWVSLIYSGGSTFYADSVRGRFTISRDNSKNTLYLQMNSLRAEDTAVYYCARDLVVYGMDVWGQGTTVTVSS
VL: DIQLTQSPSSLSASVGDRVTITCRASQGISSYLAWYQQKPGKAPKLLIYAASTLQSGVPSRFSGSGSGTDFTLTISSLQPEDFATYYCQHLNSDPHTFGQGTKLEIKR
B11: mAb14232 (antibody, V domains shown)
VH: QITLKESGPTLVKPTQTLTLTCTFSGFSLSASGVGVGWIRQPPGKALEWLALIYWDDDKRYSPSLKSRLTITKDTSKNQVVLTMTNMDPVDTATYYCAQHKVATIFDYWGQGTLVTVSS
VL: QSALTQPPSASGSPGQSVTISCTATSSDVGNYNYVSWYQQHPGKAPKLMIYEVTKRPSGVPDRFSGSKSGNTASLTVSGLQAEDEADYYCSSYAGSWGVFGGGTKLTVLG
B12: mAb14280 (antibody, V domains shown)
VH: QVQLVQSGAEVKKPGASVRVSCKASGYTFTGNYIHWVRQAPGQGLEWMAWINPNSGGKNYAQKFQGRVTLTRDTSVNTAYMELSRLRSDDTAMYYCARDVNYNILTGPGGLWGQGTLVTVSS
VL: QSALTQPPSASGSPGQSVTISCTGTSSDVGGYNFVSWYQQHPGKAPKLMIYEVSKRPSGVPDRFSGSKSGNTASLTVSGLQAEDEADYYCSSYAGSNNFVFGTGTKVTVLG
B13: mAb15163 (antibody, V domains shown)
VH: EVQLVETGGGLIQPGESLRLSCAASGFIVSTNYMNWVRQAPGKGLEWVSVIYRGGSTYYADSVKGRFTISRDNSKNTLFLQMNSLRAEDTAVYYCARGHEDFDYDTPASGAFDIWGQGTMVTVSS
VL: QSALTQPPSASGSPGQSVTISCTGTSSDVGGHNYVSWYQQHPGKAPKVMIYEVSKRPSGVPDRFSGSKSGNTASLTVSGLQAEDEADYYCSSYAGSNKFVFGTGTKVTVLG
B14: mAb15157 (antibody, V domains shown)
VH: EVQLVESGGALVQPGGSLRLSCAASGFPFTIYAMTWVRQAPGKGLEWVSVITGSGDSTYYADSVKGRFTISRDNSKNTLYLQMNSLRAEDTAVYYCVKTGEGFFYYYYGMDVWGQGTTVTVSS
VL: QSVLTQPPSVSAAPGQKVTISCSGSSSNIGNSYISWYQQLPGTAPKLLIYVNNKRPSGIPDRFSGSKSGTSATLGITGLQTGDEADYYCGTWDSSLSAGVFGSGTKVTVLG
B15: mAb14292 (antibody, V domains shown)
VH: EVQLVESGGGLVQPGGSLRLSCVASGFAFSTYEMNWVRQAPGKGLEWVSYISSSGSTIYYADSVKGRLTISRDNVKNSLYLQMNSLRVEDTAIYYCARDAIRNNDILTDPATFDPWGQGTLVTVSS
VL: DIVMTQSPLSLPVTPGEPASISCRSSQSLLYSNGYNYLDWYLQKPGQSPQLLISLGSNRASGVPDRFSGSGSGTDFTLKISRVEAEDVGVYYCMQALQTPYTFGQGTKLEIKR
B16: mAb15162 (antibody, V domains shown)
VH: EVQLVETGGGLIQPGGSLRLSCAASEFIVSRNYMSWVRQAPGKGLEWVSLIYSGGSTYYADSVKGRFTISRDNSKNILYLQMNSLRAEDTAVYYCARDRGGISDYWGQGTLVTVSS
VL: DIQMTQSPSSLSASVGDRVTITCQASQDINKYLNWFQQKPGKAPKLLIYDASNLETGVPSRFSGSGSGTDFTFTISSLQPEDIATYYCQQYDNLPRTFGQGTKLEIKR

Experiments:
[1] = molecular target: T1, SARS-CoV2 Spike ecto foldon Trimer expressed with a C-terminal myc-myc-hexahistidine (SARS-CoV-2, UniProt P0DTC2 14-1213); assay: SPR Biacore, mAb captured by anti-hFc, 37C
T1 construct: extracellular domain

[2] = molecular target: T1, SARS-CoV2 Spike ecto foldon Trimer …; assay: SPR Biacore, mAb captured by anti-hFc, 25C

Row | Binder | Kd [1] [nM] | koff [1] [s⁻¹] | kon [1] [M⁻¹ s⁻¹] | t½ [1] [h] | Kd [2] [nM] | koff [2] [s⁻¹] | kon [2] [M⁻¹ s⁻¹] | t½ [2] [h]
1 | B1 | 0.0616 | 9.14e-05 | 1.48e+06 | 2.11 | 0.049 | 1.38e-05 | 280000 | 14
2 | B2 | 0.112 | 0.000212 | 1.89e+06 | 0.908 | 0.193 | 6.61e-05 | 342000 | 2.91
3 | B3 | 0.304 | 0.000242 | 796000 | 0.795 | 0.129 | 0.000189 | 1.47e+06 | 1.02
4 | B4 | 0.0359 | 4.18e-05 | 1.16e+06 | 4.61 | 0.017 | 3.98e-05 | 2.34e+06 | 4.84
5 | B5 | 0.0542 | 0.000115 | 2.12e+06 | 1.67 | 0.0279 | 1.09e-05 | 391000 | 17.6
6 | B6 | 0.0777 | 0.000138 | 1.78e+06 | 1.4 | 0.0865 | 2.58e-05 | 298000 | 7.47
7 | B7 | 0.102 | 7.16e-05 | 699000 | 2.69 | 0.0775 | 5.48e-05 | 707000 | 3.51
8 | B8 | 0.0541 | 4.07e-05 | 758000 | 4.73 | 0.153 | 1.4e-05 | 91500 | 13.8
9 | B9 | 0.132 | 0.000167 | 1.26e+06 | 1.15 | 0.102 | 3.1e-05 | 304000 | 6.21
10 | B10 | 0.0686 | 3.22e-05 | 467000 | 5.99 | 0.231 | 2.02e-05 | 87500 | 9.53
11 | B11 | 0.177 | 0.000133 | 751000 | 1.45 | 0.195 | 0.000149 | 763000 | 1.29
12 | B12 | 0.029 | 2.86e-05 | 985000 | 6.73 | 0.0136 | 2.69e-05 | 1.99e+06 | 7.14
13 | B13 | 0.0364 | 4.85e-05 | 1.35e+06 | 3.97 | 0.0562 | 1.15e-05 | 214000 | 16.7
14 | B14 | 0.141 | 0.00024 | 1.7e+06 | 0.803 | 0.308 | 9.28e-05 | 302000 | 2.08
15 | B15 | 11.5 | 0.00682 | 592000 | 0.0283 | 7.21 | 0.00421 | 584000 | 0.045
16 | B16 | 0.425 | 0.000187 | 440000 | 1.03 | 0.648 | 6.79e-05 | 105000 | 2.83
